The experiment has as its target human plasmin (human) (UniProt P00747). The experiment can be described thus: display phage binding to immobilised protease; this row is the reference taken as unit.

Sequence of human plasmin (human) (P00747 97-810 limits assumed): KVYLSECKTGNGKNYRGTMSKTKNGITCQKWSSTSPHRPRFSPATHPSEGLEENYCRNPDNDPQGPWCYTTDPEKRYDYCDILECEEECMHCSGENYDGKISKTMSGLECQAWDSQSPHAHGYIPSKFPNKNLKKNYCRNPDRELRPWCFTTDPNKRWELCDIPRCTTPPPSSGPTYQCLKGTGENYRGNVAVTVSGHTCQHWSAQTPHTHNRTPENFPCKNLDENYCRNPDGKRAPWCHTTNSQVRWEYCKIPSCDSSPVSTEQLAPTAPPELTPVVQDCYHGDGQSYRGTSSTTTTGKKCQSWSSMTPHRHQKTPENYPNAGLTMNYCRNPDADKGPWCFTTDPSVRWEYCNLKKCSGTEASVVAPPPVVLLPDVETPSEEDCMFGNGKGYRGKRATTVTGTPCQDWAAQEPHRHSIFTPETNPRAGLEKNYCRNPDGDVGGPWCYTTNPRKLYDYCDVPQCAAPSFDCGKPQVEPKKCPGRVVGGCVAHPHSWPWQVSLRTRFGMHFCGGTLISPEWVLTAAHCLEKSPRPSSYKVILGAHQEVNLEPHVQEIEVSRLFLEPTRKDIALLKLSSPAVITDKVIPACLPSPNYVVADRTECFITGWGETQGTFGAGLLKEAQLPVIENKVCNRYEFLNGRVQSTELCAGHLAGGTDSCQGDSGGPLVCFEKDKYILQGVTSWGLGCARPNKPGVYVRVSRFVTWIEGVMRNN

“LACI-K1 (first Kunitz domain of human lipoprotein-associated coagulation inhibitor) (from UniProt P10646 50-107)” had a relative binding (LACI-K1 phage = unit) (fold of LACI-K1 phage) of 1.

The values are drawn from US20090036365A1.
